This is an account of results in publication PMC6561935, “Hsp90 middle domain phosphorylation initiates a complex conformational program to recruit the ATPase-stimulating cochaperone Aha1” (Nature Communications, 2019).

“And” between values parts separate entries of the source, which are not always exact repeats. Equal values may be shown once. Where only a bound is given, the exact number is not on record here.

The labels stand for the following.
B6: purified human Hsp90α-Y313E (natural protein)
chain: not shown
notes: Hsp90α (heat shock protein 90 alpha), human; 2H/13C Ile-labelled for NMR; also called Hsp90-Y313E; Y313E-Hsp90; source: purified

The target in series [1] is T1, Hsp90-Y313E (human, UniProt P07900 1-732, Y313E).
T1 construct: Heat shock protein 90 alpha, human, phosphomimetic mutant Y313E; also called Y313E-Hsp90; Hsp90α-Y313E; source: E. coli, purified
Nature of the series: ITC; with 2 mM AMPPNP in cell and syringe; Hsp90 (30 µM) in the cell, Aha1 constructs (380-450 µM) in the syringe; 20 mM Tris pH 7.5, 100 mM NaCl, 0.5 mM EDTA, 5 mM MgSO4, 1 mM TCEP, 36 °C; three technical repeats. To be noted: both partners purified.

Series [2] concerns the target T2, Human wild-type Hsp90 (Hsp90α) (human, UniProt P07900 1-732).
T2 construct: Heat shock protein 90 alpha, human; also called Hsp90-wt; WT
Described as above. The conditions noted are these: both partners purified.

The target of series [3] is T1, Hsp90-Y313E. As to the kind of experiment: ITC; without AMPPNP; Hsp90 (30 µM) in the cell, Aha1 constructs (380-450 µM) in the syringe; 20 mM Tris pH 7.5, 100 mM NaCl, 0.5 mM EDTA, 5 mM MgSO4, 1 mM TCEP, 36 °C; three technical repeats. The conditions noted are these: both partners purified. Background: In ITC the heat of successive injections is recorded.
The target of series [4] is T2, Human wild-type Hsp90 (Hsp90α). The series is described as above. The conditions noted are these: both partners purified.
In series [5] the target is T3, human Hsp90α Y313E (phosphomimetic mutant) (human, UniProt P07900 1-732, Y313E).
T3 construct: Hsp90α, human, with the phosphomimetic substitution Y313E (numbering based on human Hsp90α); also called Hsp90-Y313E; source: purified
Nature of the series: ITC; PEAQ-ITC, 36 °C; Hsp90 in the cell (30 μM), Aha1 constructs in the syringe (380-450 μM); 20 mM Tris pH 7.5, 100 mM NaCl, 0.5 mM EDTA, 5 mM MgSO4, 1 mM TCEP; 2 mM AMPPNP in cell and syringe; three technical repeats. To be noted: both partners purified.

The target of series [6] is T4, human Hsp90α, wild-type (human, UniProt P07900 1-732).
T4 construct: Hsp90α (heat shock protein 90 alpha), human; also called WT; wild-type Hsp90; source: purified
Described as above. The conditions noted are these: both partners purified.

Series [7] concerns the target T3, human Hsp90α Y313E (phosphomimetic …). Nature of the series: ITC; PEAQ-ITC, 36 °C; Hsp90 in the cell (30 μM), Aha1 constructs in the syringe (380-450 μM); 20 mM Tris pH 7.5, 100 mM NaCl, 0.5 mM EDTA, 5 mM MgSO4, 1 mM TCEP; no AMPPNP; three technical repeats. The conditions noted are these: both partners purified.
For series [8], the target named is T4, human Hsp90α, wild-type. Described as above. The conditions noted are these: both partners purified.
The target of series [9] is B6. As to the kind of experiment: ITC; Supplementary Table 3, with 2 mM AMPPNP in cell and syringe: Hsp90 30 μM in the cell, Aha1 constructs 380-450 μM in the syringe; 36 °C; 20 mM Tris pH 7.5, 100 mM NaCl, 0.5 mM EDTA, 5 mM MgSO4, 1 mM TCEP. To be noted: both partners purified.
Series [10] concerns the molecule itself. As to the kind of experiment: cross-linking; purified Hsp90 (with or without 10 mM AMPPNP, 10 min on ice) mixed with equimolar Aha1-His, 30 min on ice; 1 mM BDP-NHP (lysine-lysine), 30 min at room temperature; 25 mM HEPES pH 7.3, 100 mM NaCl; LC-MS (ReACT, PRM).

B1: Aha1-N (N-terminal domain of human Aha1) (domain or fragment, UniProt O95433 1-162, looked up)
chain: MAKWGEGDPRWIVEERADATNVNNWHWTERDASNWSTDKLKTLFLAVQVQNEEGKCEVTEVSKLDGEASINNRKGKLIFFYEWSVKLNWTGTSKSGVQYKGHVEIPNLSDENSVDEVEISVSLAKDEPDTNLVALMKEEGVKLLREAMGIYISTLKTEFTQG
notes: Aha1, human, N-terminal domain, amino acids 1-162; source: E. coli, purified
For B1, the Kd – broadly, the equilibrium constant for the complex coming apart – in series [1] was found to be 8.9 µM; in series [2], 4.9 µM; in series [3] it was 11.2 µM; in [4], 6.8 µM.

B2: human Aha1 N-terminal domain (domain or fragment, UniProt O95433 1-162, looked up)
chain: MAKWGEGDPRWIVEERADATNVNNWHWTERDASNWSTDKLKTLFLAVQVQNEEGKCEVTEVSKLDGEASINNRKGKLIFFYEWSVKLNWTGTSKSGVQYKGHVEIPNLSDENSVDEVEISVSLAKDEPDTNLVALMKEEGVKLLREAMGIYISTLKTEFTQG
notes: Aha1, human, N-terminal domain (Aha1-N, amino acid 1-162); the ITC methods speak only of 'Aha1 constructs'; source: purified
Regarding B2, the equilibrium dissociation constant (Kd) was 7.97 µM and 8.96 µM and 9.66 µM and 8.86 µM in [5]; 5.69 µM and 4.69 µM and 4.25 µM and 4.88 µM in [6]; 11.6 µM and 12.2 µM and 9.96 µM and 11.2 µM in series [7]; 7.2 µM and 6.1 µM and 7.22 µM and 6.84 µM in series [8].

B3: Aha1-C (C-terminal domain of human Aha1) (domain or fragment, UniProt O95433 201-338, looked up)
chain: GVKIPTCKITLKETFLTSPEELYRVFTTQELVQAFTHAPATLEADRGGKFHMVDGNVSGEFTDLVPEKHIVMKWRFKSWPEGHFATITLTFIDKNGETELCMEGRGIPAPEEERTRQGWQRYYFEGIKQTFGYGARLF
notes: Aha1, human, C-terminal domain, amino acids 201-338; source: E. coli, purified
For the molecule B3, the figures for the dissociation constant Kd in [1], in series [2] and in [3] were 2.3 µM, 15.6 µM and 5.5 µM, respectively.

B4: human Aha1 C-terminal domain (domain or fragment, UniProt O95433 201-338, looked up)
chain: GVKIPTCKITLKETFLTSPEELYRVFTTQELVQAFTHAPATLEADRGGKFHMVDGNVSGEFTDLVPEKHIVMKWRFKSWPEGHFATITLTFIDKNGETELCMEGRGIPAPEEERTRQGWQRYYFEGIKQTFGYGARLF
notes: Aha1, human, C-terminal domain (Aha1-C, amino acid 201-338); the ITC methods speak only of 'Aha1 constructs'; source: purified
For B4, the Kd is 2.02 µM and 2.27 µM and 2.62 µM and 2.3 µM in series [5]; 17 µM and 13.3 µM and 16.4 µM and 15.6 µM in series [6]; 7.71 µM and 4.59 µM and 4.04 µM and 5.45 µM in [7].

B5: purified Aha1-C (domain or fragment, human, UniProt O95433 201-338, looked up)
chain: GVKIPTCKITLKETFLTSPEELYRVFTTQELVQAFTHAPATLEADRGGKFHMVDGNVSGEFTDLVPEKHIVMKWRFKSWPEGHFATITLTFIDKNGETELCMEGRGIPAPEEERTRQGWQRYYFEGIKQTFGYGARLF
notes: Aha1, human, C-terminal domain, amino acid 201-338; perdeuterated for NMR; source: purified
On to B5, for which, in [9], the “fold reduction of Kd against wild-type Hsp90 (both with AMPPNP)” value was about 7 fold and the “fold reduction of Kd with AMPPNP against without AMPPNP” value was over 2 fold.

Take B6: in series [10], the binding result is listed as “binds”.
